Source: patent US20260258394A1, “PLANT ENZYMES WITH IMPROVED ACTIVITY” (MAX-PLANCK-GESELLSCHAFT ZUR FÖRDERUNG DER WISSENSCHAFTEN …, priority 2023, published 2026)
Where a chain is given by its changes, count along the chain named.

Tests used:
Assay in all cases: mass photometry of purified protein
[1] = target: T1, PCC WT (M. extorquens) β-subunit (Methylorubrum extorquens)
T1 construct: Wild-type β-subunit of propionyl-CoA carboxylase, forms the β6 core; also called PCC wildtype; PCC from M. extorquens
T1 chain: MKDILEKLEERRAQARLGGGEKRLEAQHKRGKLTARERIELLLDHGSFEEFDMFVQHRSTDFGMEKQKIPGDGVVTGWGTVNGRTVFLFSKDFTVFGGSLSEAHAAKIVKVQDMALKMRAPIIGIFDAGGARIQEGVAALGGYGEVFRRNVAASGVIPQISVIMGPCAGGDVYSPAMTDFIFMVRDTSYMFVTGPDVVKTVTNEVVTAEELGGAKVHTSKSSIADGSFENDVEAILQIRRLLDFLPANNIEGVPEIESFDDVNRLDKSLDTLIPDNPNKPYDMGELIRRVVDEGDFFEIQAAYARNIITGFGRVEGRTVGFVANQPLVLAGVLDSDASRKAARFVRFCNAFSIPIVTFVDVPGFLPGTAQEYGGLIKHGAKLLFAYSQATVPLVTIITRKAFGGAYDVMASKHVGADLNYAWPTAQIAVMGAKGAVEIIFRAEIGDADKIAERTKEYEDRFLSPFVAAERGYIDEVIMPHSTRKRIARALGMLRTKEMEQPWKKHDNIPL
Description: (§1) Mass photometry (MP) measurements were carried out on microscope coverslips (1.5 H, 24×50 mm, Carl Roth) with CultureWell™ Reusable Gaskets (CW-50R-1.0, 50-3 mm diameter×1 mm depth) that had been washed by three consecutive rinses of water and isopropanol, prior to drying under a stream of pressurized air. Gaskets were assembled on microscope coverslips and placed on the stage of a TwoMP mass photometer (MP, Refeyn Ltd, Oxford, UK) with immersion oil. Measurements were carried out in 1× phosphate-buffered saline (PBS, 10 mM Na₂HPO₄, 1.8 mM KH₂PO₄, 137 mM NaCl, 2.7 mM KCl (pH 7.4)). To this end, 18 μL 1×PBS was used to focus the MP before 2 μL sample (1 μM protein) was added, rapidly mixed, and measured. Shortly before measuring, samples were prepared by diluting purified protein to 1 μM monomer concentration in buffer (50 mM HEPES, pH 7.8, 150 mM KCl), as determined by absorption at 280 nm. Data was acquired for 60 s at 100 frames per second using AcquireMP (Refeyn Ltd, Oxford, UK). MP contrast was calibrated to molecular masses using 50 nM of in-house purified protein mixture containing citrate-synthase complexes of known molecular masses ranging from 86 to 430 kDa. MP datasets were processed and analyzed using DiscoverMP (Refeyn Ltd, Oxford, UK). Details of MP image analysis have been described previously (Sonn-Segev, et al., 2020, Nat Commun 11, 1772).

[2] = target: T2, GCC M5 (M. extorquens) β-subunit L100S, Y143H, D407I, I450V, W502R mutations (Methylorubrum extorquens)
T2 construct: Engineered β-subunit (carboxyltransferase), forms the β6 core; also called S100S; β6 core of GCC M5
T2 chain: T1 chain with L100S, Y143H, D407I, I450V, W502R
Description: as §1

[3] = target: T3, GCC M5_L100N (M. extorquens) β-subunit L100N, Y143H, D407I, I450V, W502R mutations (Methylorubrum extorquens)
T3 construct: Engineered β-subunit, forms the β6 core; Cryo-EM structure PDB 8PN8; also called S100N; GCC M5 S100N
T3 chain: T1 chain with L100N, Y143H, D407I, I450V, W502R
Description: as §1

Measured: binding result

B1: PCC WT (M. extorquens) α-subunit (enzyme)
chain: MFDKILIANRGEIACRIIKTAQKMGIKTVAVYSDADRDAVHVAMADEAVHIGPAPAAQSYLLIEKIIDACKQTGAQAVHPGYGFLSERESFPKALAEAGIVFIGPNPGAIAAMGDKIESKKAAAAAEVSTVPGFLGVIESPEHAVTIADEIGYPVMIKASAGGGGKGMRIAESADEVAEGFARAKSEASSSFGDDRVFVEKFITDPRHIEIQVIGDKHGNVIYLGERECSIQRRNQKVIEEAPSPLLDEETRRKMGEQAVALAKAVNYDSAGTVEFVAGQDKSFYFLEMNTRLQVEHPVTEMITGLDLVELMIRVAAGEKLPLSQDQVKLDGWAVESRVYAEDPTRNFLPSIGRLTTYQPPEEGPLGGAIVRNDTGVEEGGEIAIHYDPMIAKLVTWAPTRLEAIEAQATALDAFAIEGIRHNIPFLATLMAHPRWRDGRLSTGFIKEEFPEGFIAPEPEGPVAHRLAAVAAAIDHKLNIRKRGISGQMRDPSLLTFQRERVVVLSGQRFNVTVDPDGDDLLVTFDDGTTAPVRSAWRPGAPVWSGTVGDQSVAIQVRPLLNGVFLQHAGAAAEARVFTRREAELADLMPVKENAGSGKQLLCPMPGLVKQIMVSEGQEVKNGEPLAIVEAMKMENVLRAERDGTISKIAAKEGDSLAVDAVILEFA
modifications: biotin covalently bound to a lysine (position not given)
notes: Co-expressed with the β-subunit and BirA in E. coli BL21-birA and purified by His-Trap; also called α-subunit of the PCC; GCC M5 α-subunit
binds: all assays above
